Reference: article PMC8809985 (2021)

Columns and labels:
[1] = target: T1, recombinant human tumor necrosis factor alpha (human, UniProt P01375 77-233); assay: BLI
[2] = target: T1, recombinant human tumor necrosis factor …; assay: BLI; remark: listed apart in the source

T1 sequence (P01375 77-233): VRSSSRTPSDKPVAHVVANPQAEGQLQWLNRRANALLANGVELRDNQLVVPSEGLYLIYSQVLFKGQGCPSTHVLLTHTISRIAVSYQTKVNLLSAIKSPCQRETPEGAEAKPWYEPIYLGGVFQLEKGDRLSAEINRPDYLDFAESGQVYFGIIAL

B1: Haidalimumab (antibody, V domains shown)
VH: EVQLVESGGGLVQPGGSLRLSCAASGFPFSNHWMNWVRQAPGKGLEWVGEIRSKSMNSATHYAESVKGRFTISRDDSKNSLYLQMNSLKTEDTAVYYCARNYYGSTYDHWGQGTLVTVSS
VL: EIVLTQSPDFQSVTPKEKVTITCRASQFVGYSIHWYQQKPDQSPKLLIKYASESRSGVPSRFSGSGSGTDFTLTINSLEAEDAATYYCQQSHSWHFTFGQGTKLEIK
**Q.** With B1 as the binder, how does the koff [1] read?
**A.** 0.00023 s⁻¹

**Q.** What about the Kd [2] of the same binder?
**A.** 0.774 nM
